The values that follow come from patent US20240261333A1, “NOVEL TARGETS FOR ENHANCING ANTI-TUMOR IMMUNITY” (THE BROAD INSTITUTE, INC., priority 2021, published 2024).

For one assay, the target named is TCP1 (human) (UniProt P17987). The assay can be described thus: co-IP with mouse anti-FLAG from lysate of cells overexpressing C-FLAG B3GNT2, then mass spectrometry.
The target of the next assay is TAF15 (human) (UniProt Q92804). The assay is described as above.
A further assay deals with SRP14 (human) (UniProt P37108). The assay is described as above.
The next assay deals with EIF3I (human) (UniProt Q13347). The assay is described as above.
Sequence of EIF3I (human) (Q13347 whole entry): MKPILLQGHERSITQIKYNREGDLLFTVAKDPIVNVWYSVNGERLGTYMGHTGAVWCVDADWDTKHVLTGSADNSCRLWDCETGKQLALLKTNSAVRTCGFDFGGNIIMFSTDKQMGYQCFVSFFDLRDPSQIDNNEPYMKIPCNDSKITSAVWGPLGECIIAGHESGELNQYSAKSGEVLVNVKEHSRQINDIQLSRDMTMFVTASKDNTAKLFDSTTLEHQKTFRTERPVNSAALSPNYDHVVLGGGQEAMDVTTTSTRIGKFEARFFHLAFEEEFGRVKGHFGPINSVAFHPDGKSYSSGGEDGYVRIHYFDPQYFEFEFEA
Another assay has as its target MAGED2 (human) (UniProt Q9UNF1). The description is as above.
A further assay deals with SUPT16H (human) (UniProt Q9Y5B9). Described as above.
A further assay has as its target NAP1L1 (human) (UniProt P55209). The assay can be described thus: co-IP with IgG control, lysate of C-FLAG B3GNT2 cells, mass spectrometry.
Another assay addresses PURA (human) (UniProt Q00577). Described as above.
The target in a further assay is RPL7A (human) (UniProt P62424). The description is as above.
For another assay, the target named is CPSF7 (human) (UniProt Q8N684). Described as above.
The target of the next assay is PRRC2C (human) (UniProt Q9Y520). The assay is described as above.
Sequence of PRRC2C (human) (Q9Y520 other isoform, or with tags, fused parts or gaps limits assumed): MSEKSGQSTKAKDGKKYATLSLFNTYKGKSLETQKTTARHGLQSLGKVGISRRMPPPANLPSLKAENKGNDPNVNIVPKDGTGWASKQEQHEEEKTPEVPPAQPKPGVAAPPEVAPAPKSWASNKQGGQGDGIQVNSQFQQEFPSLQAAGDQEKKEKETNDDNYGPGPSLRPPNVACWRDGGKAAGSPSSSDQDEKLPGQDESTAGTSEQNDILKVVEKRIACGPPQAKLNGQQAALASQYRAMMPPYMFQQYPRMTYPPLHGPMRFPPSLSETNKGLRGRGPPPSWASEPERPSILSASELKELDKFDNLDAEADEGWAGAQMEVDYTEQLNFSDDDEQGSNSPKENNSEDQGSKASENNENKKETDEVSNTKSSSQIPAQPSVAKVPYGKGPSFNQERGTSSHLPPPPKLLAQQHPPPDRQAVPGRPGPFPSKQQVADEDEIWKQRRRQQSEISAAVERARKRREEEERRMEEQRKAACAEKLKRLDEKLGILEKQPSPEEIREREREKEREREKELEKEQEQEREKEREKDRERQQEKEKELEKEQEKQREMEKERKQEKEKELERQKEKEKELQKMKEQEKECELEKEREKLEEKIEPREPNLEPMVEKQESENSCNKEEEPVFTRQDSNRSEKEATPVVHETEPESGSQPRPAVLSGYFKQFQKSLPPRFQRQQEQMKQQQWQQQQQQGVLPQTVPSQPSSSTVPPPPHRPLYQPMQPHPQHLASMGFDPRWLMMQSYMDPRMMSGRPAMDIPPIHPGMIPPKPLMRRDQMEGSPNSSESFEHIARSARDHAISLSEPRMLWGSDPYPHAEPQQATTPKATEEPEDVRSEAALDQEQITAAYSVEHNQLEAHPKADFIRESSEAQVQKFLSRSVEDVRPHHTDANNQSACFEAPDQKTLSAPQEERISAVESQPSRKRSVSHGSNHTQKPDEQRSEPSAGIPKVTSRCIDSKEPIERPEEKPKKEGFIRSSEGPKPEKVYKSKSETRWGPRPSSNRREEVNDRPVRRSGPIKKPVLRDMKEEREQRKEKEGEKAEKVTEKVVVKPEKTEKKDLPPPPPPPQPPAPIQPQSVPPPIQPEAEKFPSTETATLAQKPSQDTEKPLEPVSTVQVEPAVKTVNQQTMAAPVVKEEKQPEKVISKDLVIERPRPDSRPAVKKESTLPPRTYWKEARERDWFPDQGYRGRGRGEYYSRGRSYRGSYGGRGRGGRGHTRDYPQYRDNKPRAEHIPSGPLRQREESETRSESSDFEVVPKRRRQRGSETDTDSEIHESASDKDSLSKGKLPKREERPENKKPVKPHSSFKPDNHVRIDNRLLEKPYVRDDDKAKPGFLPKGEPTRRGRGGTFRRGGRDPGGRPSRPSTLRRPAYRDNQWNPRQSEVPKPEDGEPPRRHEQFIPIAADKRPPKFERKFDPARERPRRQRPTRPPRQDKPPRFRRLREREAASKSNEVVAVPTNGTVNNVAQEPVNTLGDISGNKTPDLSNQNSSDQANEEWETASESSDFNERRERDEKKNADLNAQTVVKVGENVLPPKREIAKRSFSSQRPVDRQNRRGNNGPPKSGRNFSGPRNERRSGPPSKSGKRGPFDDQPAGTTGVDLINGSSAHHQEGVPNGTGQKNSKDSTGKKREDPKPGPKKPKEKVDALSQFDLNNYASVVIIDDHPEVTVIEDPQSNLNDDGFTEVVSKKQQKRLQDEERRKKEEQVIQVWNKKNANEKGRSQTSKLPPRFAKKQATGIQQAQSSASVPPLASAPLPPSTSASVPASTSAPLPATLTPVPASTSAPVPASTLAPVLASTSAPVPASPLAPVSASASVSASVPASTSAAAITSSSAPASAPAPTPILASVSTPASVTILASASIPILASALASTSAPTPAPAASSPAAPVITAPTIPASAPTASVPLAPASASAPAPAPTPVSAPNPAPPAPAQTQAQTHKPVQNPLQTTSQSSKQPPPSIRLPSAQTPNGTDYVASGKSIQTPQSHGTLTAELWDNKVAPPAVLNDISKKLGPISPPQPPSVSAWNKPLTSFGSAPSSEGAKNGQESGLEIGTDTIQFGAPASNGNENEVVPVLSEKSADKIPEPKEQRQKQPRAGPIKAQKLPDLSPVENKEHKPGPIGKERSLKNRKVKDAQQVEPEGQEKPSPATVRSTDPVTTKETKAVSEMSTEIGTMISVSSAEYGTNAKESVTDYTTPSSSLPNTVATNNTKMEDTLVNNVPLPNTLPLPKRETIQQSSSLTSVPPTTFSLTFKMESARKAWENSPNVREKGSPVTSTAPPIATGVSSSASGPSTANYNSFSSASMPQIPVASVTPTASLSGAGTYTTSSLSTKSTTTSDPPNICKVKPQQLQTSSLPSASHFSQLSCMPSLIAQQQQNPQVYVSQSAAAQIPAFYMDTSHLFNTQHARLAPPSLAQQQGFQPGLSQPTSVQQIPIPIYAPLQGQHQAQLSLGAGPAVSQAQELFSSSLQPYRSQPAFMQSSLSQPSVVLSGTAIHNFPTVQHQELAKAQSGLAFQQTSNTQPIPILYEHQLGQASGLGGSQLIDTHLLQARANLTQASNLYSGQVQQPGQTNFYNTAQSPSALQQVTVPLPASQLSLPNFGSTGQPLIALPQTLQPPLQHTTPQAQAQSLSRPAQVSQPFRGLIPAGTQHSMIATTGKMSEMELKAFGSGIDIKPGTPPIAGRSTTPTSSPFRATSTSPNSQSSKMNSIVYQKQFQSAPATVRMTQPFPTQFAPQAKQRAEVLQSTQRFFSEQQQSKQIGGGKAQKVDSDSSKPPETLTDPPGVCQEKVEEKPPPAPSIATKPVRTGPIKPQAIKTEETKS
The next assay addresses PUF60 (human) (UniProt Q9UHX1). The description is as above.
A further assay deals with RBM14 (human) (UniProt Q96PK6). Described as above.
Sequence of RBM14 (human) (Q96PK6 whole entry): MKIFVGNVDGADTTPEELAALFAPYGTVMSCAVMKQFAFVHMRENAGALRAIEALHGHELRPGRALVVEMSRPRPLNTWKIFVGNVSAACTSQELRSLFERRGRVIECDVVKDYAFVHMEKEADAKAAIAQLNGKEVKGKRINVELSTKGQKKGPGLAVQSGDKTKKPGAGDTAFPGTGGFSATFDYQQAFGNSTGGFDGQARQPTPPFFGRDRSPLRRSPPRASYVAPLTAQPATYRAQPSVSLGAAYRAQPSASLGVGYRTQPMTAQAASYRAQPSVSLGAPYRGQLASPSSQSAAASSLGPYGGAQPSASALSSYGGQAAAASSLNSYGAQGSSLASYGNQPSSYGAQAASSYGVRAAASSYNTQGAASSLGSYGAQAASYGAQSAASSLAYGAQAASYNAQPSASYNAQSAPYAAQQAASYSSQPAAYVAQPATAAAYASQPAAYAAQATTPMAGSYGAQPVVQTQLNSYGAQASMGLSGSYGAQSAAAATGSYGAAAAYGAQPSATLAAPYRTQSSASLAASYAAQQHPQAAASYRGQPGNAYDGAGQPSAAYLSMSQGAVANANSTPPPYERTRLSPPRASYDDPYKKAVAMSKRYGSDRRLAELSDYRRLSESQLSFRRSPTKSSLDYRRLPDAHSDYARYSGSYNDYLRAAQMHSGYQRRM
In a further assay the target is RPS24 (human) (UniProt P62847). Described as above.
Sequence of RPS24 (human) (P62847 other isoform, or with tags, fused parts or gaps limits assumed): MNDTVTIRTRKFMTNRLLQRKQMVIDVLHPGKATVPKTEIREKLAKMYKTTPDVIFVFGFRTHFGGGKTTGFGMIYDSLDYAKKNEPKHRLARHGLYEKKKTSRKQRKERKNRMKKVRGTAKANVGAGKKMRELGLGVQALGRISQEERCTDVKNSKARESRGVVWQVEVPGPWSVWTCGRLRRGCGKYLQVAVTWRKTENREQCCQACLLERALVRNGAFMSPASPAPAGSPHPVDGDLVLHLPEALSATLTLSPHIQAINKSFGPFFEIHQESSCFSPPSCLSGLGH
For another assay, the target named is LAMC1 (human) (UniProt P11047). The description is as above.
Another assay addresses XPO1 (human) (UniProt O14980). Described as above.
The target of another assay is HBB (human) (UniProt P68871). The description is as above.
Another assay addresses TGM1 (human) (UniProt P22735). The assay is described as above.
In a further assay the target is PSMA3 (human) (UniProt P25788). The description is as above.
The next assay deals with SPARC (human) (UniProt P09486). The description is as above.
Sequence of SPARC (human) (P09486 18-303 limits assumed): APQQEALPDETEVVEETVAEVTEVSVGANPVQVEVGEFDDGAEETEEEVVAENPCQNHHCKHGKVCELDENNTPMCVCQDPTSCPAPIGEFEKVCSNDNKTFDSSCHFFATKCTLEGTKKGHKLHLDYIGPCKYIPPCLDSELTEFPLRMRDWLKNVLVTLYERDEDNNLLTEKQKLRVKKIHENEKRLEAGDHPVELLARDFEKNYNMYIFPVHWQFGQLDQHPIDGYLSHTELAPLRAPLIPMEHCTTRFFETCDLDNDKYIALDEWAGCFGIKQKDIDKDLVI
The target of another assay is RPL6 (human) (UniProt Q02878). Described as above.
The next assay has as its target SBSN (human) (UniProt Q6UWP8). The description is as above.
A further assay deals with LUC7L3 (human) (UniProt O95232). Described as above.
The target of the next assay is COPA (human) (UniProt P53621). Described as above.
The target of a further assay is CLTC (human) (UniProt Q00610). The assay is described as above.
The target in the next assay is CPT1A (human) (UniProt P50416). Described as above.
Another assay deals with P4HA2 (human) (UniProt O15460). Described as above.
In the next assay the target is RUVBL2 (human) (UniProt Q9Y230). The assay is described as above.
Another assay has as its target PLOD1 (human) (UniProt Q02809). The description is as above.
The next assay concerns the target ARPC1B (human) (UniProt O15143). The assay is described as above.
The target of a further assay is SRSF6 (human) (UniProt Q13247). Described as above.
Assay [1] addresses P0AA25.2 [thioredoxin: P0AA25]. The description is as above.
The target of the next assay is RPS20 (human) (UniProt P60866). The description is as above.
For another assay, the target named is MMP14 (human) (UniProt P50281). The description is as above.
A further assay has as its target TM9SF1 (human) (UniProt O15321). The description is as above.
For another assay, the target named is DDX17 (human) (UniProt Q92841). The assay is described as above.
The target of a further assay is DDX3X (human) (UniProt O00571). The assay is described as above.

Sequence of TAF15 (human) (Q92804 other isoform, or with tags, fused parts or gaps limits assumed): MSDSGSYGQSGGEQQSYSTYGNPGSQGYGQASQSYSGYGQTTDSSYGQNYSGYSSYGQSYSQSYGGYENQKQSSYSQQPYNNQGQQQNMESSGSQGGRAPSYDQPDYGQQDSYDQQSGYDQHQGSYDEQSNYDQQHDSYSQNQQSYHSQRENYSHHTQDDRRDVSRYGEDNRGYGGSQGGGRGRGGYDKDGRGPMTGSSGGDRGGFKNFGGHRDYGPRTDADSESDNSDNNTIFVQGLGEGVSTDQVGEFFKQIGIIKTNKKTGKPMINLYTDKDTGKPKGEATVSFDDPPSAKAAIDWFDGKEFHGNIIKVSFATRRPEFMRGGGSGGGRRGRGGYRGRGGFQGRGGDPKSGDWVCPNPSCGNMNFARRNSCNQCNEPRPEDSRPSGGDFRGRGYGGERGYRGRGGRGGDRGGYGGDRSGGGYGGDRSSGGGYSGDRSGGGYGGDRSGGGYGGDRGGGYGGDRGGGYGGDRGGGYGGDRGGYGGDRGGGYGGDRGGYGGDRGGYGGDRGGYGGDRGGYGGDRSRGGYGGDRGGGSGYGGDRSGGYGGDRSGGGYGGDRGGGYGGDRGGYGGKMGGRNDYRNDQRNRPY

On to “C-terminal FLAG tagged B3GNT2 (from UniProt Q9NY97 1-397) (enzyme)”, for which the co-IP mass spectrometry count (C-term flag) came to 3 in the assay with TCP1 (human); 10 with TAF15 (human); 3 in the assay with SRP14 (human); 3 with EIF3I (human); 3 with MAGED2 (human); 3 with SUPT16H (human).

Turning to “IgG control (Millipore Sigma 12-371) (antibody)”, the co-IP/MS count, C-term IgG is 0 with NAP1L1 (human); 0 with PURA (human); 5 with RPL7A (human); 9 with CPSF7 (human); 6 in the assay with PRRC2C (human); 5 in the assay with PUF60 (human). Besides, the co-IP/MS count, C-term IgG was found to be 0 in the assay with RBM14 (human); 2 with RPS24 (human); 0 in the assay with LAMC1 (human); 0 with XPO1 (human); 0 with HBB (human); 10 with TGM1 (human). The co-IP/MS count, C-term IgG is 0 with PSMA3 (human); 0 in the assay with SPARC (human); 4 with RPL6 (human); 15 with SBSN (human); 3 in the assay with LUC7L3 (human); 0 with COPA (human). Besides, the co-IP/MS count, C-term IgG with CLTC (human) was 5; with CPT1A (human), 0; in the assay with P4HA2 (human), 0; with RUVBL2 (human) it was 0; in the assay with PLOD1 (human), 0; with ARPC1B (human), 2. For the same substance, the co-IP/MS count, C-term IgG was 5 with SRSF6 (human); 8 in [1]; 5 with RPS20 (human); 0 with MMP14 (human); 0 with TM9SF1 (human); 22 with DDX17 (human). Further, in the assay with DDX3X (human), the co-IP/MS count, C-term IgG came to 15.
